In the Human Domainome abundance scans (Beltran et al. 2025):
± gives the uncertainty stated by the source.

B1: POU domain, class 3, transcription factor 2, residues 356 to 411; numbered along this chain, P20265 (parent)
chain: KKRTSIEVSVKGALESHFLKCPKPSAQEITSLADSLQLEKEVVRVWFCNRRQKEKR

Variants of: B1
Assay: abundance fitness (aPCA) (normalised: wild type 0, dead -1); higher = more abundant; growth selection in yeast, the domain comes from the species named
Details: Homo sapiens

Point of comparison: KKRTSIEVSVKGALESHFLKCPKPSAQEITSLADSLQLEKEVVRVQFCNRRQKEKR [W46Q], abundance fitness -0.78 ± 0.16. Against it:
- KKRTSIEVSVKGALESHFLKCPKPSAQEITSLADSLQLEKEVVRVTFCNRRQKEKR [W46T] — within error, -0.958 ± 0.17
- KKRTSIEVSVKGALESHFLKCPKPSAQEITSLADSLQLEKEVVRVNFCNRRQKEKR [W46N] — within error, -0.896 ± 0.3
- KKRTSIEVSVKGALESHFLKCPKPSAQEITSLADSLQLEKEVVRVRFCNRRQKEKR [W46R] — within error, -0.805 ± 0.084
- KKRTSIEVSVKGALESHFLKCPKPSAQEITSLADSLQLEKEVVRVYFCNRRQKEKR [W46Y] — within error, -0.648 ± 0.24
- KKRTSIEVSVKGALESHFLKCPKPSAQEITSLADSLQLEKEVVRVAFCNRRQKEKR [W46A] — within error, -0.932 ± 0.13
- KKRTSIEVSVKGALESHFLKCPKPSAQEITSLADSLQLEKEVVRVDFCNRRQKEKR [W46D] — within error, -0.318 ± 0.38
- KKRTSIEVSVKGALESHFLKCPKPSAQEITSLADSLQLEKEVVRVEFCNRRQKEKR [W46E] — within error, -0.946 ± 0.17
- KKRTSIEVSVKGALESHFLKCPKPSAQEITSLADSLQLEKEVVRVSFCNRRQKEKR [W46S] — within error, -0.698 ± 0.1
- KKRTSIEVSVKGALESHFLKCPKPSAQEITSLADSLQLEKEVVRVKFCNRRQKEKR [W46K] — within error, -0.845 ± 0.18
- KKRTSIEVSVKGALESHFLKCPKPSAQEITSLADSLQLEKEVVRVPFCNRRQKEKR [W46P] — within error, -0.986 ± 0.15
- KKRTSIEVSVKGALESHFLKCPKPSAQEITSLADSLQLEKEVVRVIFCNRRQKEKR [W46I] — within error, -0.932 ± 0.19
- KKRTSIEVSVKGALESHFLKCPKPSAQEITSLADSLQLEKEVVRVMFCNRRQKEKR [W46M] — within error, -0.922 ± 0.14
- KKRTSIEVSVKGALESHFLKCPKPSAQEITSLADSLQLEKEVVRVFFCNRRQKEKR [W46F] — higher, -0.393 ± 0.15
- KKRTSIEVSVKGALESHFLKCPKPSAQEITSLADSLQLEKEVVRVGFCNRRQKEKR [W46G] — within error, -0.92 ± 0.1
- KKRTSIEVSVKGALESHFLKCPKPSAQEITSLADSLQLEKEVVRVHFCNRRQKEKR [W46H] — within error, -0.927 ± 0.23
- KKRTSIEVSVKGALESHFLKCPKPSAQEITSLADSLQLEKEVVRVLFCNRRQKEKR [W46L] — within error, -0.934 ± 0.091
- KKRTSIEVSVKGALESHFLKCPKPSAQEITSLADSLQLEKEVVRVVFCNRRQKEKR [W46V] — within error, -0.933 ± 0.12
- KKRTSIEVSVKGALESHFLKCPKPSAQEITSLADSLQLEKEVVRVCFCNRRQKEKR [W46C] — within error, -0.826 ± 0.35
- KKRTSIEVSVKGALESHFLKCPKPSAQEITSLADSLQLEKEVVRLWFCNRRQKEKR [V45L] — higher, -0.033 ± 0.084
- KKRTSIEVSVKGALESHFLKCPKPSAQEITSLADSLQLEKEVVRRWFCNRRQKEKR [V45R] — higher, -0.293 ± 0.09
- KKRTSIEVSVKGALESHFLKCPKPSAQEITSLADSLQLEKEVVRTWFCNRRQKEKR [V45T] — higher, 0.001 ± 0.088
- KKRTSIEVSVKGALESHFLKCPKPSAQEITSLADSLQLEKEVVRPWFCNRRQKEKR [V45P] — within error, -0.784 ± 0.13
- KKRTSIEVSVKGALESHFLKCPKPSAQEITSLADSLQLEKEVVRQWFCNRRQKEKR [V45Q] — higher, 0.061 ± 0.11
- KKRTSIEVSVKGALESHFLKCPKPSAQEITSLADSLQLEKEVVRYWFCNRRQKEKR [V45Y] — higher, -0.152 ± 0.11
- KKRTSIEVSVKGALESHFLKCPKPSAQEITSLADSLQLEKEVVRCWFCNRRQKEKR [V45C] — higher, -0.294 ± 0.12
- KKRTSIEVSVKGALESHFLKCPKPSAQEITSLADSLQLEKEVVRKWFCNRRQKEKR [V45K] — higher, -0.057 ± 0.1
- KKRTSIEVSVKGALESHFLKCPKPSAQEITSLADSLQLEKEVVRWWFCNRRQKEKR [V45W] — higher, -0.038 ± 0.14
- KKRTSIEVSVKGALESHFLKCPKPSAQEITSLADSLQLEKEVVRMWFCNRRQKEKR [V45M] — higher, -0.101 ± 0.18
- KKRTSIEVSVKGALESHFLKCPKPSAQEITSLADSLQLEKEVVRNWFCNRRQKEKR [V45N] — higher, -0.006 ± 0.11
- KKRTSIEVSVKGALESHFLKCPKPSAQEITSLADSLQLEKEVVRHWFCNRRQKEKR [V45H] — higher, 0.089 ± 0.12
- KKRTSIEVSVKGALESHFLKCPKPSAQEITSLADSLQLEKEVVRDWFCNRRQKEKR [V45D] — higher, 0.07 ± 0.078
- KKRTSIEVSVKGALESHFLKCPKPSAQEITSLADSLQLEKEVVRIWFCNRRQKEKR [V45I] — higher, 0.01 ± 0.12
- KKRTSIEVSVKGALESHFLKCPKPSAQEITSLADSLQLEKEVVRGWFCNRRQKEKR [V45G] — higher, -0.048 ± 0.092
- KKRTSIEVSVKGALESHFLKCPKPSAQEITSLADSLQLEKEVVRSWFCNRRQKEKR [V45S] — higher, 0.097 ± 0.076
- KKRTSIEVSVKGALESHFLKCPKPSAQEITSLADSLQLEKEVVRFWFCNRRQKEKR [V45F] — higher, -0.175 ± 0.094
- KKRTSIEVSVKGALESHFLKCPKPSAQEITSLADSLQLEKEVVRVWFMNRRQKEKR [C48M] — higher, -0.052 ± 0.15
- KKRTSIEVSVKGALESHFLKCPKPSAQEITSLADSLQLEKEVVRVWFQNRRQKEKR [C48Q] — higher, 0.141 ± 0.15
- KKRTSIEVSVKGALESHFLKCPKPSAQEITSLADSLQLEKEVVRVWFDNRRQKEKR [C48D] — higher, -0.053 ± 0.14
- KKRTSIEVSVKGALESHFLKCPKPSAQEITSLADSLQLEKEVVRVWFANRRQKEKR [C48A] — higher, -0.096 ± 0.1
- KKRTSIEVSVKGALESHFLKCPKPSAQEITSLADSLQLEKEVVRVWFFNRRQKEKR [C48F] — higher, 0.078 ± 0.12
- KKRTSIEVSVKGALESHFLKCPKPSAQEITSLADSLQLEKEVVRVWFENRRQKEKR [C48E] — higher, 0.149 ± 0.15
- KKRTSIEVSVKGALESHFLKCPKPSAQEITSLADSLQLEKEVVRVWFNNRRQKEKR [C48N] — higher, -0.165 ± 0.19
- KKRTSIEVSVKGALESHFLKCPKPSAQEITSLADSLQLEKEVVRVWFHNRRQKEKR [C48H] — higher, -0.118 ± 0.19
- KKRTSIEVSVKGALESHFLKCPKPSAQEITSLADSLQLEKEVVRVWFINRRQKEKR [C48I] — higher, -0.004 ± 0.18
- KKRTSIEVSVKGALESHFLKCPKPSAQEITSLADSLQLEKEVVRVWFPNRRQKEKR [C48P] — within error, -0.948 ± 0.23
- KKRTSIEVSVKGALESHFLKCPKPSAQEITSLADSLQLEKEVVRVWFKNRRQKEKR [C48K] — higher, 0.101 ± 0.16
